# Source: patent EP4818209A2 (Primatope Therapeutics Inc., dated 2026)
# B1: humanized 2C10 antibody, Clone 2.189.2 (2C10_h3 + 2C10_l2) (antibody, V domains shown)
# VH: QVQLVQSGAEVKKPGASVKVSCKASGYTFTNYWMHWVRQAPGQRLEWIGYINPSNDYTKYNQKFKDRATLTADKSANTAYMELSSLRSEDTAVYYCARQGFPYWGQGTLVTVSS
# VL: EIVLTQSPATLSLSPGERATLSCSASSSVSYMHWYQQKPGQAPRRWIYDTSKLASGVPARFSGSGSGTDYTLTISSLEPEDFAVYYCHQLSSDPFTFGGGTKVEIK
# notes: also called h2C10; mAb 2.189.2
# Target: T1, recombinant human CD40 (human, UniProt P25942 21-120, limits assumed)
# T1 construct: biotinylated there; also called hCD40; purified CD40
# Test: binding kinetics to human CD40
# T1 sequence (P25942 21-120 limits assumed): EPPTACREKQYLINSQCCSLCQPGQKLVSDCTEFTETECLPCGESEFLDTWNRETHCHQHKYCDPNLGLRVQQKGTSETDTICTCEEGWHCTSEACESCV
binder,measurement,value
B1,fold difference of affinity against murine 2C10,≤ 2 fold
